Consider 60 variants from the Human Domainome abundance scans (Beltran et al. 2025).

± gives the uncertainty stated by the source.

The labels stand for the following.
B1: DNA topoisomerase 3-alpha, residues 812 to 851; numbered along this chain, Q13472 (parent)
chain: TCNCGQEAVLLTVRKEGPNRGRQFFKCNGGSCNFFLWADS

In the data set the parent is B1. The experiment in a line: abundance fitness (aPCA) (normalised: wild type 0, dead -1); higher = more abundant; growth selection in yeast, the domain comes from the species named. The following applies: Homo sapiens.
TCNCGQEAVLLTVRKEGPNRGRQFFKENGGSCNFFLWADS: the abundance fitness was -0.53 ± 0.38. Turning to TCNCGQEAVLLTVRKEGPNRGRQFFKVNGGSCNFFLWADS, the abundance fitness is -1.09 ± 0.25. Consider TCNCGQEAVLLTVRKEGPNRGRQFFKMNGGSCNFFLWADS, for which the abundance fitness is -0.789 ± 0.25.

TCNCGQEAVLLTVRKEGPNRGRQFFKHNGGSCNFFLWADS: the abundance fitness is -0.753 ± 0.35. As for TCNCGQEAVLLTVRKEGPNRGRQFFKCNGGSCNFELWADS, the figure is -0.447 ± 0.16. TCNCGQEAVLLTVRKEGPNRGRQFFKCNGGSCNFPLWADS: the abundance fitness was -0.388 ± 0.16. As for TCNCGQEAVLLTVRKEGPNRGRQFFKCNGGSCNFFLKADS, the abundance fitness was -0.29 ± 0.13.

For TCNCGQEAVLLTVRKEGPNRGRQFFKCNGGSCNFFLAADS, the abundance fitness was -0.477 ± 0.089.

Take TCNCGQEAVLLTVRKEGPNRGRQFFKCNGGSCNFFLTADS: the abundance fitness is -0.483 ± 0.13.

On to TCNCGQEAVLLTVRKEGPNRGMQFFKCNGGSCNFFLWADS, for which the abundance fitness is -0.677 ± 0.2. As to TCNCGQEAVLLTVRKEGPNRGQQFFKCNGGSCNFFLWADS, the abundance fitness was -0.623 ± 0.13.

With TCNCGQEAVLLTVRKEGPNRGRQFFKCNGVSCNFFLWADS, the abundance fitness is -0.574 ± 0.12. As to TCNCGQEAVLLTVRKEGPNRGRQFFKCNGLSCNFFLWADS, the abundance fitness was -0.473 ± 0.14. As to TCNCGQEAVLLTVRKEGPNRGRQFFKCNGGSCNFFLWACS, the abundance fitness was -0.205 ± 0.14. Consider TCNCGQEAVLLTVRKEGPNRGRQFFKCNGGSCNFFLWAES, for which the abundance fitness is -0.105 ± 0.088. Consider TCNCGQEAVLLTVRKEGPNRGRQFFKCNGGSCNFFLWAPS, for which the abundance fitness was -0.171 ± 0.17. As for TCLCGQEAVLLTVRKEGPNRGRQFFKCNGGSCNFFLWADS, the figure is -0.32 ± 0.091; as for TCNCGQHAVLLTVRKEGPNRGRQFFKCNGGSCNFFLWADS, -0.142 ± 0.1.

TCNCGQSAVLLTVRKEGPNRGRQFFKCNGGSCNFFLWADS: the abundance fitness is -0.233 ± 0.15.

As for TCNCGQEAVLGTVRKEGPNRGRQFFKCNGGSCNFFLWADS, the abundance fitness stood at 0.041 ± 0.064. As for TCNCGQEAVLWTVRKEGPNRGRQFFKCNGGSCNFFLWADS, the figure is -0.072 ± 0.072; as for TCNCGQEAVLQTVRKEGPNRGRQFFKCNGGSCNFFLWADS, 0.054 ± 0.086; as for TCNCGQEAVLLTVRKEGPNRGRQFFKCNGGSCNFFLWPDS, -0.659 ± 0.13. The result for TCNCGQEAVLLTVRKEGPNRGRQFFKCNGGSCNFFLWDDS reads -0.371 ± 0.21; that for TCNCGQEAVLLTVRKEGPNRGRQFFKCNGGDCNFFLWADS, 0.077 ± 0.094; that for TCNCGQEAVLLTVRKEGPNRGRQFFKCNGGWCNFFLWADS, -0.273 ± 0.11.

On to TCNCGQEAVLLTVRKEGPNRGRQFFKCNGGACNFFLWADS, for which the abundance fitness is -0.072 ± 0.073. As for TCNCGQEAVLLTVRKEGPNRGRQFFKCNGGQCNFFLWADS, the abundance fitness amounted to 0.055 ± 0.099. The result for TCNCGQEAVLLTVRKEGPNRGRQFFKCNGGLCNFFLWADS reads -0.176 ± 0.073; that for TCNCGQEAQLLTVRKEGPNRGRQFFKCNGGSCNFFLWADS, -0.04 ± 0.067; that for TCNCGQEACLLTVRKEGPNRGRQFFKCNGGSCNFFLWADS, -0.226 ± 0.11. For TCNCGQEAVLLTSRKEGPNRGRQFFKCNGGSCNFFLWADS, the abundance fitness is -0.234 ± 0.14.

For the variant TCNCGQEAVLLTVRKEGPNRGRQFFACNGGSCNFFLWADS, the abundance fitness is -0.001 ± 0.095. Turning to TCNCGQEAVLLTVRKEGPNRGRQFFRCNGGSCNFFLWADS, the abundance fitness was found to be 0.025 ± 0.12.

Regarding TCNCGQEAVLLTVRKCGPNRGRQFFKCNGGSCNFFLWADS, the abundance fitness was -0.342 ± 0.087.

On to TCNCGQEAVLLTVRKTGPNRGRQFFKCNGGSCNFFLWADS, for which the abundance fitness was -0.13 ± 0.087.

For the variant TCNCGQEAVLLTVRKNGPNRGRQFFKCNGGSCNFFLWADS, the abundance fitness is -0.018 ± 0.054. Take TCNRGQEAVLLTVRKEGPNRGRQFFKCNGGSCNFFLWADS: the abundance fitness was -0.907 ± 0.26. Consider TCNLGQEAVLLTVRKEGPNRGRQFFKCNGGSCNFFLWADS, for which the abundance fitness is -1.24 ± 0.41. With TCNCGQEAVLLTVRNEGPNRGRQFFKCNGGSCNFFLWADS, the abundance fitness came to 0.031 ± 0.11. Turning to TCNCGQEAVLLTVRMEGPNRGRQFFKCNGGSCNFFLWADS, the abundance fitness was -0.066 ± 0.18. Take TCNCGQEAVLLTVRREGPNRGRQFFKCNGGSCNFFLWADS: the abundance fitness amounted to 0.108 ± 0.15. As for TCNCGQEAVLLPVRKEGPNRGRQFFKCNGGSCNFFLWADS, the abundance fitness is -0.528 ± 0.11. The result for TCNCGQEAVLLVVRKEGPNRGRQFFKCNGGSCNFFLWADS reads -0.47 ± 0.083; that for TCNCGQEAVLLHVRKEGPNRGRQFFKCNGGSCNFFLWADS, -0.383 ± 0.2; that for TCNCGQEAVLLQVRKEGPNRGRQFFKCNGGSCNFFLWADS, -0.24 ± 0.32.

Consider TCNCGQEAVLLWVRKEGPNRGRQFFKCNGGSCNFFLWADS, for which the abundance fitness is -0.721 ± 0.2. For TCNCGQEAVLLCVRKEGPNRGRQFFKCNGGSCNFFLWADS, the abundance fitness is -0.39 ± 0.2. Consider TCNCGQEAVLLKVRKEGPNRGRQFFKCNGGSCNFFLWADS, for which the abundance fitness is -0.347 ± 0.057.

Consider TCNCGQEAVLLTVRKEGPNRGRQFFKCNGGSCNFFKWADS, for which the abundance fitness was found to be 0.189 ± 0.081. With TCNCGQEAVLLTVRKEGPNRGRQFFKCNGGSCNFFWWADS, the abundance fitness is -0.134 ± 0.086. Take TCNCGQEAVLLTVRKEGPNRGRQFFKCNGGSCNFFYWADS: the abundance fitness is -0.265 ± 0.14. Turning to TCNCGQEAVLLTVRKEGPNRGRQFFKCNGGSCNFFGWADS, the abundance fitness is -0.177 ± 0.054. Consider TCNCGQEAVLLTVRKEGPNRGRQFFKCNGGSCNFFHWADS, for which the abundance fitness was -0.22 ± 0.17. In the case of TCNCGQEAVLLTVRKEGPNRGRQFFKCNGGSCNFFEWADS, the abundance fitness was -0.013 ± 0.066.

TCNCGQEAVLLTVRKEGPNRGRQFFKCNGGSCNFFMWADS: the abundance fitness was determined as 0.022 ± 0.078.

For the variant TCNCGQEAVLLTVRKEGPNRGRQFFKCNGGSCGFFLWADS, the abundance fitness is -0.072 ± 0.13.

As for TCNCGQEAVLLTVRKEGPNRGRQFFKCNGGSCLFFLWADS, the abundance fitness was -0.892 ± 0.37. Consider TCNCGQEAVLLTVRKEGPNRGRQFFKCNGGSCAFFLWADS, for which the abundance fitness was -0.12 ± 0.057. TCNCGQEAVLLTVRKEGPNRGRQFFKCVGGSCNFFLWADS: the abundance fitness is -0.136 ± 0.078.
